According to the supplement of paper PMC10724198:
± gives the standard deviation of the averaged measurements.
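Further: PSI is a weighted mean of sequencing reads over stability bins, variants kept only with over 10 reads, mCherry proximal and sfGFP distal, peptide attached via GGGS linker.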

The sequences below were run on Saccharomyces cerevisiae (assay: protein stability index of tFT-peptide fusion (C-terminal peptide) (PSI (0-1 scale)); higher = more stable (slower turnover)). Conditions: genetic background: wild type; temperature: 30 C.
PPRAPPPPVPPL was tested, and the protein stability index was 0.598 ± 0.03. With PPRLAPPDPSLL the protein stability index was 0.673 ± 0.022. PPRLHPAPPPRT gave a protein stability index of 0.747 ± 0.033. With PPRLPLSHPPEP the protein stability index was 0.634 ± 0.022. PPRLRSPTPFLL was tested, and the protein stability index was 0.755 ± 0.027. For PPRLSPAPPASP, the protein stability index was 0.605 ± 0.009. Work on PPRPPHPAPSPH yielded a protein stability index of 0.638 ± 0.024. PPRPPPPPLRST showed a protein stability index of 0.758 ± 0.078. PPRPPSPLPLPP gave a protein stability index of 0.687 ± 0.016. PPRPSLLPRALF showed a protein stability index of 0.642 ± 0.041. In the case of PPRPSPPLSPLP, the protein stability index is reported as 0.72 ± 0.042. PPRVSLLSPPPP showed a protein stability index of 0.693 ± 0.034. For PPRVSLLTPSPR, the protein stability index was 0.853 ± 0.21. PPSASLAPFLSP showed a protein stability index of 0.722 ± 0.12. PPSLPLLPPHPP showed a protein stability index of 0.562 ± 0.011. Work on PPSLRVVMVVGR yielded a protein stability index of 0.611 ± 0.056. PPSMRQRKRSGP showed a protein stability index of 0.746 ± 0.028. PPSPAPLHPSTS gave a protein stability index of 0.661 ± 0.047. PPSPAPPPASPP gave a protein stability index of 0.651 ± 0.035. Work on PPSPCRTHRLYI yielded a protein stability index of 0.629 ± 0.022. For PPSPLAPPLPPP, the protein stability index was 0.709 ± 0.036. Work on PPSPLPPAPPSP yielded a protein stability index of 0.668 ± 0.029. Sequence PPSPPDLPPHPP has a protein stability index of 0.618 ± 0.027. Work on PPSPPPPPKIPP yielded a protein stability index of 0.627 ± 0.055. PPSPPPPPPPTP was tested, and the protein stability index was 0.699 ± 0.043. With PPSPPPPPSSPP the protein stability index was 0.707 ± 0.071. PPSPPPPRPSFP was tested, and the protein stability index was 0.713 ± 0.0096. For PPSPPRPPTSFL, the protein stability index was 0.608 ± 0.057. Sequence PPSPPSPPPPLP has a protein stability index of 0.69 ± 0.012. Sequence PPSPPTPPPPLP has a protein stability index of 0.66 ± 0.0085. For PPSPRPPRPLFA, the protein stability index was 0.664 ± 0.021. Sequence PPSPYNPPSTAN has a protein stability index of 0.722 ± 0.0091. For PPSRDRATSPSE, the protein stability index was 0.656 ± 0.023. Sequence PPSRNPPDLDTQ has a protein stability index of 0.682 ± 0.14. In the case of PPSSFHFVVPHP, the protein stability index is reported as 0.684 ± 0.054. For PPSTFDPSTLRP, the protein stability index was 0.665 ± 0.041. PPSTSPTLTSAR was tested, and the protein stability index was 0.722 ± 0.016. PPSVLPLPPSLP gave a protein stability index of 0.732 ± 0.043. PPSVPPPLPHPV gave a protein stability index of 0.74 ± 0.037. With PPTFPPPLPLPP the protein stability index was 0.692 ± 0.031. With PPTGHAPSRALT the protein stability index was 0.676 ± 0.091. PPTPAPLSPPYV gave a protein stability index of 0.712 ± 0.026. With PPTSLRFRPPYC the protein stability index was 0.682 ± 0.046. In the case of PPVAPTPFPPPS, the protein stability index is reported as 0.684 ± 0.018. In the case of PPVFYAPLVTER, the protein stability index is reported as 0.7 ± 0.035. With PPVPPPAPPHPR the protein stability index was 0.753 ± 0.14. For PPVPPPLPYLPP, the protein stability index was 0.624 ± 0.031. PPVPRSPPPRRS was tested, and the protein stability index was 0.719 ± 0.12. Sequence PPVPSLFPPPPH has a protein stability index of 0.674 ± 0.038. For PPVRPRPDPACR, the protein stability index was 0.727 ± 0.031. For PPVSPPLPPPPH, the protein stability index was 0.704 ± 0.03. With PPVWSSLPPPPF the protein stability index was 0.721 ± 0.018. PQLNRKAATPQN was tested, and the protein stability index was 0.641 ± 0.069. For PQPLESTVDHRL, the protein stability index was 0.7192 ± 0.0062. Work on PRAANRWASKAL yielded a protein stability index of 0.6941 ± 0.0069. PRETRPDEAQRG showed a protein stability index of 0.726 ± 0.069. PREYGSYHNYHS showed a protein stability index of 0.592 ± 0.047. Work on PRFPPLPAHRVR yielded a protein stability index of 0.633 ± 0.047. PRFPQPSTLLPP was tested, and the protein stability index was 0.698 ± 0.021. PRHPRLPAPPAP gave a protein stability index of 0.666 ± 0.034. PRHSPPPPLPAP showed a protein stability index of 0.699 ± 0.014. Work on PRHVISQCFSRT yielded a protein stability index of 0.6641 ± 0.005. With PRIPPPIPPDTP the protein stability index was 0.695 ± 0.045. PRKHSSRAINPI was tested, and the protein stability index was 0.721 ± 0.06. PRLCFPPPPAPA showed a protein stability index of 0.688 ± 0.083. PRPPALPFPLLA was tested, and the protein stability index was 0.5329 ± 0.0036. PRPPHPPPASPP was tested, and the protein stability index was 0.58 ± 0.031. Sequence PRPPPPRPRSSP has a protein stability index of 0.667 ± 0.066. PRPPSPPPPSPA gave a protein stability index of 0.808 ± 0.072. For PRRLCLLPLLSP, the protein stability index was 0.662 ± 0.022. For PRRPCDPLRAPH, the protein stability index was 0.737 ± 0.15. With PRRPPPPRARFP the protein stability index was 0.723 ± 0.026. With PRSAMTRHSSCR the protein stability index was 0.65 ± 0.017. Sequence PRSAPPPPNSLF has a protein stability index of 0.656 ± 0.035. Sequence PRSPLSIFPSSL has a protein stability index of 0.692 ± 0.13. With PRSPSPPRSPSP the protein stability index was 0.66 ± 0.12. Sequence PRSSPEPTCQDP has a protein stability index of 0.647 ± 0.099. PRSTATSPPAPP was tested, and the protein stability index was 0.6678 ± 0.0019. Work on PRTDIGGAGLGE yielded a protein stability index of 0.6961 ± 0.0019. PRTLRHSGRLAE was tested, and the protein stability index was 0.705 ± 0.016. PRTSQVNRFFRV gave a protein stability index of 0.721 ± 0.13. In the case of PRYCVQQNPQDR, the protein stability index is reported as 0.722 ± 0.044. In the case of PSALPPFQPGPL, the protein stability index is reported as 0.747 ± 0.047. For PSAPFPFPALGA, the protein stability index was 0.61 ± 0.028. In the case of PSAPLVPNLLAA, the protein stability index is reported as 0.662 ± 0.016. For PSAPPSLPFLPY, the protein stability index was 0.692 ± 0.032. Work on PSDYDCHRKTFS yielded a protein stability index of 0.738 ± 0.01. With PSFLPLPLPSSF the protein stability index was 0.718 ± 0.028. For PSFPHLPDFFIP, the protein stability index was 0.6779 ± 0.0019. PSFPSSPSPVTL gave a protein stability index of 0.69 ± 0.035. Work on PSGDYVVLTTVS yielded a protein stability index of 0.6901 ± 0.0038. PSGFLFPLSPPA showed a protein stability index of 0.698 ± 0.01. For PSGLLPILRLFL, the protein stability index was 0.681 ± 0.047. With PSGNGAPRVHRK the protein stability index was 0.65 ± 0.011. In the case of PSHLPRARRPPR, the protein stability index is reported as 0.686 ± 0.011. With PSHLWWDCIRKG the protein stability index was 0.625 ± 0.049. With PSHPAPGPSTRQ the protein stability index was 0.673 ± 0.032. With PSHPPLLLPLLL the protein stability index was 0.714 ± 0.022. Work on PSHSRSRPPPYL yielded a protein stability index of 0.742 ± 0.1. PSKMPNSTLRAE gave a protein stability index of 0.682 ± 0.065. With PSKTQKQYKTVA the protein stability index was 0.644 ± 0.094. Work on PSLHRPPLLPCP yielded a protein stability index of 0.674 ± 0.013. PSLLLPPLPLYT gave a protein stability index of 0.662 ± 0.031. Work on PSLLPPATLLPI yielded a protein stability index of 0.718 ± 0.072. Work on PSLLSHAPSPRR yielded a protein stability index of 0.682 ± 0.016. In the case of PSLPLPSPPPFP, the protein stability index is reported as 0.643 ± 0.1. PSLPPHPPSPLP gave a protein stability index of 0.742 ± 0.053. PSLPPPSPSTAP showed a protein stability index of 0.713 ± 0.03. Sequence PSLPRLPLCPLP has a protein stability index of 0.704 ± 0.018. PSLSPLPPRTTS was tested, and the protein stability index was 0.732 ± 0.048. Work on PSLSYSRPPHPS yielded a protein stability index of 0.681 ± 0.027. For PSPGPPHPPPLF, the protein stability index was 0.713 ± 0.063. For PSPGPPLPPPLF, the protein stability index was 0.7625 ± 0.0075. PSPLPGYFFTLS was tested, and the protein stability index was 0.627 ± 0.12. PSPLPPPAPHPL was tested, and the protein stability index was 0.752 ± 0.26. In the case of PSPLPSPPPPPP, the protein stability index is reported as 0.625 ± 0.0074. Work on PSPLPTALLTNR yielded a protein stability index of 0.644 ± 0.14. With PSPLSPEHPLPI the protein stability index was 0.72334 ± 0.00035. For PSPPLLPPPLYT, the protein stability index was 0.658 ± 0.014. PSPPPFPPIPFC gave a protein stability index of 0.708 ± 0.048. For PSPPPPPPTTVL, the protein stability index was 0.718 ± 0.021. Work on PSPPPSSPPPRS yielded a protein stability index of 0.686 ± 0.051. PSPPRPPLPART was tested, and the protein stability index was 0.763 ± 0.028. Work on PSPPVPPLPPVF yielded a protein stability index of 0.55 ± 0.032. With PSPPYPPPSLPH the protein stability index was 0.69 ± 0.044. Sequence PSPPYSRPPLPP has a protein stability index of 0.698 ± 0.049. PSPRISLSVFPC gave a protein stability index of 0.646 ± 0.062. PSPRSPVPLTPS was tested, and the protein stability index was 0.708 ± 0.015. PSPRSSPPCSAS was tested, and the protein stability index was 0.693 ± 0.039. Work on PSPSPNALALLR yielded a protein stability index of 0.71439 ± 0.00045. In the case of PSPSPPPLRSPL, the protein stability index is reported as 0.623 ± 0.016. For PSQPLPPSRHRP, the protein stability index was 0.616 ± 0.037. For PSRPPALPPPAT, the protein stability index was 0.721 ± 0.014. For PSRRPAVLPPLI, the protein stability index was 0.6719 ± 0.0015. For PSRSCSAPLHPN, the protein stability index was 0.78 ± 0.056. Work on PSRTTPARPPLT yielded a protein stability index of 0.662 ± 0.061. For PSSEGHMEDTAA, the protein stability index was 0.684 ± 0.018. Sequence PSSPPPPSATPP has a protein stability index of 0.701 ± 0.091. PSSTLRLSPSSL was tested, and the protein stability index was 0.728 ± 0.023. PSSVPSTPTPPP was tested, and the protein stability index was 0.657 ± 0.076. PSTAPHLSPPPP showed a protein stability index of 0.731 ± 0.022. PSTRPMLRSQQK showed a protein stability index of 0.66 ± 0.013. With PSVPPLQPPHSV the protein stability index was 0.697 ± 0.031. With PSVVPSLSPLFL the protein stability index was 0.796 ± 0.062. PSVYAASPPLPP gave a protein stability index of 0.68 ± 0.03. In the case of PSYSFQYRLIQD, the protein stability index is reported as 0.712 ± 0.038. With PTDFTPREAIGI the protein stability index was 0.68 ± 0.087. For PTGYPGPRMMVW, the protein stability index was 0.771 ± 0.3. With PTHALLGCTCAN the protein stability index was 0.681 ± 0.024. Work on PTLRAPLRYGYL yielded a protein stability index of 0.675 ± 0.022. For PTPLSRPPTNAA, the protein stability index was 0.634 ± 0.042. For PTPPPGLCTPRH, the protein stability index was 0.702 ± 0.04. Sequence PTPPSARAPPTT has a protein stability index of 0.686 ± 0.032. For PTQVSGIVPAPR, the protein stability index was 0.7732 ± 0.0051. PTRIPRAPGPAQ showed a protein stability index of 0.694 ± 0.025. In the case of PTRPPNEPTVHP, the protein stability index is reported as 0.659 ± 0.066. PTRPSRPPRPPP gave a protein stability index of 0.598 ± 0.026. PTRRPDGQLHPS showed a protein stability index of 0.6707 ± 0.0027. PTRTAYHRQIPT was tested, and the protein stability index was 0.773 ± 0.043. In the case of PTRTSHLCLIPP, the protein stability index is reported as 0.67 ± 0.075.
